Patent US9284543B2, “Neutral active soluble truncated PH20 polypeptides and uses thereof” (Halozyme, Inc., priority 2008, dated 2016)

B1: SPAM1-TEEP: C-terminally truncated human PH20, precursor 478 aa (SEQ ID NO:22), mature 443 aa (SEQ ID NO:74) (protein, listed as Homo sapiens)
chain 1: MGVLKFKHIFFRSFVKSSGVSQIVFTFLLIPCCLTLNFRAPPVIPNVPFLWAWNAPSEFCLGKFDEPLDMSLFSFIGSPRINATGQGVTIFYVDRLGYYPYIDSITGVTVNGGIPQKISLQDHLDKAKKDITFYMPVDNLGMAVIDWEEWRPTWARNWKPKDVYKNRSIELVQQQNVQLSLTEATEKAKQEFEKAGKDFLVETIKLGKLLRPNHLWGYYLFPDCYNHHYKKPGYNGSCFNVEIKRNDDLSWLWNESTALYPSIYLNTQQSPVAATLYVRNRVREAIRVSKIPDAKSPLPVFAYTRIVFTDQVLKFLSQDELVYTFGETVALGASGIVIWGTLSIMRSMKSCLLLDNYMETILNPYIINVTLAAKMCSQVLCQEQGVCIRKNWNSSDYLHLNPDNFAIQLEKGGKFTVRGKPTLEDLEQFSEKFYCSCYSTLSCKEKADVKDTDAVDVCIADGVCIDAFLKPPMETEEP
chain 2: LNFRAPPVIPNVPFLWAWNAPSEFCLGKFDEPLDMSLFSFIGSPRINATGQGVTIFYVDRLGYYPYIDSITGVTVNGGIPQKISLQDHLDKAKKDITFYMPVDNLGMAVIDWEEWRPTWARNWKPKDVYKNRSIELVQQQNVQLSLTEATEKAKQEFEKAGKDFLVETIKLGKLLRPNHLWGYYLFPDCYNHHYKKPGYNGSCFNVEIKRNDDLSWLWNESTALYPSIYLNTQQSPVAATLYVRNRVREAIRVSKIPDAKSPLPVFAYTRIVFTDQVLKFLSQDELVYTFGETVALGASGIVIWGTLSIMRSMKSCLLLDNYMETILNPYIINVTLAAKMCSQVLCQEQGVCIRKNWNSSDYLHLNPDNFAIQLEKGGKFTVRGKPTLEDLEQFSEKFYCSCYSTLSCKEKADVKDTDAVDVCIADGVCIDAFLKPPMETEEP
modifications: HuPH20 precursor 1-478; Mature HuPH20 36-478
B2: SPAM1-EEPQ: C-terminally truncated human PH20, precursor 479 aa (SEQ ID NO:21), mature 444 aa (SEQ ID NO:73) (protein, listed as Homo sapiens)
chain 1: MGVLKFKHIFFRSFVKSSGVSQIVFTFLLIPCCLTLNFRAPPVIPNVPFLWAWNAPSEFCLGKFDEPLDMSLFSFIGSPRINATGQGVTIFYVDRLGYYPYIDSITGVTVNGGIPQKISLQDHLDKAKKDITFYMPVDNLGMAVIDWEEWRPTWARNWKPKDVYKNRSIELVQQQNVQLSLTEATEKAKQEFEKAGKDFLVETIKLGKLLRPNHLWGYYLFPDCYNHHYKKPGYNGSCFNVEIKRNDDLSWLWNESTALYPSIYLNTQQSPVAATLYVRNRVREAIRVSKIPDAKSPLPVFAYTRIVFTDQVLKFLSQDELVYTFGETVALGASGIVIWGTLSIMRSMKSCLLLDNYMETILNPYIINVTLAAKMCSQVLCQEQGVCIRKNWNSSDYLHLNPDNFAIQLEKGGKFTVRGKPTLEDLEQFSEKFYCSCYSTLSCKEKADVKDTDAVDVCIADGVCIDAFLKPPMETEEPQ
chain 2: B2 chain 1
modifications: HuPH20 precursor 1-479; Mature HuPH20 36-479
B3: SPAM1-ETEE: C-terminally truncated human PH20, precursor 477 aa (SEQ ID NO:23), mature 442 aa (SEQ ID NO:75) (protein, listed as Homo sapiens)
chain 1: MGVLKFKHIFFRSFVKSSGVSQIVFTFLLIPCCLTLNFRAPPVIPNVPFLWAWNAPSEFCLGKFDEPLDMSLFSFIGSPRINATGQGVTIFYVDRLGYYPYIDSITGVTVNGGIPQKISLQDHLDKAKKDITFYMPVDNLGMAVIDWEEWRPTWARNWKPKDVYKNRSIELVQQQNVQLSLTEATEKAKQEFEKAGKDFLVETIKLGKLLRPNHLWGYYLFPDCYNHHYKKPGYNGSCFNVEIKRNDDLSWLWNESTALYPSIYLNTQQSPVAATLYVRNRVREAIRVSKIPDAKSPLPVFAYTRIVFTDQVLKFLSQDELVYTFGETVALGASGIVIWGTLSIMRSMKSCLLLDNYMETILNPYIINVTLAAKMCSQVLCQEQGVCIRKNWNSSDYLHLNPDNFAIQLEKGGKFTVRGKPTLEDLEQFSEKFYCSCYSTLSCKEKADVKDTDAVDVCIADGVCIDAFLKPPMETEE
chain 2: LNFRAPPVIPNVPFLWAWNAPSEFCLGKFDEPLDMSLFSFIGSPRINATGQGVTIFYVDRLGYYPYIDSITGVTVNGGIPQKISLQDHLDKAKKDITFYMPVDNLGMAVIDWEEWRPTWARNWKPKDVYKNRSIELVQQQNVQLSLTEATEKAKQEFEKAGKDFLVETIKLGKLLRPNHLWGYYLFPDCYNHHYKKPGYNGSCFNVEIKRNDDLSWLWNESTALYPSIYLNTQQSPVAATLYVRNRVREAIRVSKIPDAKSPLPVFAYTRIVFTDQVLKFLSQDELVYTFGETVALGASGIVIWGTLSIMRSMKSCLLLDNYMETILNPYIINVTLAAKMCSQVLCQEQGVCIRKNWNSSDYLHLNPDNFAIQLEKGGKFTVRGKPTLEDLEQFSEKFYCSCYSTLSCKEKADVKDTDAVDVCIADGVCIDAFLKPPMETEE
modifications: HuPH20 precursor 1-477; Mature HuPH20 36-477
B4: SPAM1-EPQI: C-terminally truncated human PH20, precursor 480 aa (SEQ ID NO:20), mature 445 aa (SEQ ID NO:72) (protein, listed as Homo sapiens)
chain 1: MGVLKFKHIFFRSFVKSSGVSQIVFTFLLIPCCLTLNFRAPPVIPNVPFLWAWNAPSEFCLGKFDEPLDMSLFSFIGSPRINATGQGVTIFYVDRLGYYPYIDSITGVTVNGGIPQKISLQDHLDKAKKDITFYMPVDNLGMAVIDWEEWRPTWARNWKPKDVYKNRSIELVQQQNVQLSLTEATEKAKQEFEKAGKDFLVETIKLGKLLRPNHLWGYYLFPDCYNHHYKKPGYNGSCFNVEIKRNDDLSWLWNESTALYPSIYLNTQQSPVAATLYVRNRVREAIRVSKIPDAKSPLPVFAYTRIVFTDQVLKFLSQDELVYTFGETVALGASGIVIWGTLSIMRSMKSCLLLDNYMETILNPYIINVTLAAKMCSQVLCQEQGVCIRKNWNSSDYLHLNPDNFAIQLEKGGKFTVRGKPTLEDLEQFSEKFYCSCYSTLSCKEKADVKDTDAVDVCIADGVCIDAFLKPPMETEEPQI
chain 2: LNFRAPPVIPNVPFLWAWNAPSEFCLGKFDEPLDMSLFSFIGSPRINATGQGVTIFYVDRLGYYPYIDSITGVTVNGGIPQKISLQDHLDKAKKDITFYMPVDNLGMAVIDWEEWRPTWARNWKPKDVYKNRSIELVQQQNVQLSLTEATEKAKQEFEKAGKDFLVETIKLGKLLRPNHLWGYYLFPDCYNHHYKKPGYNGSCFNVEIKRNDDLSWLWNESTALYPSIYLNTQQSPVAATLYVRNRVREAIRVSKIPDAKSPLPVFAYTRIVFTDQVLKFLSQDELVYTFGETVALGASGIVIWGTLSIMRSMKSCLLLDNYMETILNPYIINVTLAAKMCSQVLCQEQGVCIRKNWNSSDYLHLNPDNFAIQLEKGGKFTVRGKPTLEDLEQFSEKFYCSCYSTLSCKEKADVKDTDAVDVCIADGVCIDAFLKPPMETEEPQI
modifications: HuPH20 precursor 1-480; Mature HuPH20 36-480

test system: not listed separately; test: Microtiter hyaluronidase activity assay with biotinylated-hyaluronic acid; format: biochemical; details: Table 6; 72 hour post transfection supernatant; pH 5.5

Row | pH 5.5 Activity [Units/ml] | Molecule
1 | 1.584 | B1
2 | 2.0745 | B2
3 | 2.0475 | B3
4 | 1.6425 | B4

same assay, conditions: Table 6; 72 hour post transfection supernatant; pH 7.4

Row | pH 7.4 Activity [Units/ml] | Molecule
5 | 1.764 | B1
6 | 1.917 | B2
7 | 2.088 | B3
8 | 2.1825 | B4

test system: CHO-S cells; test: Western blot analysis of PH20 expression in media and cells after transient expression; format: cell-based, Chinese Hamster; details: media versus cells
Method in brief: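 PH20 expression and solubility were judged by anti-PH20 Western blot of non-reduced media and cell fractions, with expression shown by a ~66 kDa band. Samples came from CHO-S cells transiently transfected (GeneJuice) with mutant PH20-HZ24 DNA and cultured 48-72 h. GPI-anchored mutants were cleaved with PI-PLC to release soluble protein.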

Row | Molecule | Expressed in Media
9 | B1 | YES
10 | B2 | YES
11 | B3 | YES
12 | B4 | YES
